{
  "source": "patent US20190343963A1",
  "key": {"IL-13 (human) [1]": {"target": "IL-13 (human) (UniProt P35225)", "sequence (P35225 35-146)": "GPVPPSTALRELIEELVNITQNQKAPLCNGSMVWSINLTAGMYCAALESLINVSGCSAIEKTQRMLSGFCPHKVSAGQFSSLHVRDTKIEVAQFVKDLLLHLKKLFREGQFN", "assay": "competition ELISA; 1 h incubation"}, "IL-13 (human) [2]": {"target": "IL-13 (human) (UniProt P35225)", "assay": "competition ELISA; 1 h incubation", "remark": "listed apart in the source"}, "IL-13 (human) [3]": {"target": "IL-13 (human) (UniProt P35225)", "assay": "competition ELISA; 24 h incubation"}, "IL-13 (human) [4]": {"target": "IL-13 (human) (UniProt P35225)", "assay": "competition ELISA; 24 h incubation", "remark": "listed apart in the source"}},
  "data": [
    {"substance": "CAT-354", "values": [
      {"measurement": "EC50", "setting": "IL-13 (human) [1]", "result": 0.25, "unit": "nM"},
      {"measurement": "EC50", "setting": "IL-13 (human) [2]", "result": 2.1, "unit": "nM"},
      {"measurement": "EC50", "setting": "IL-13 (human) [3]", "result": 0.54, "unit": "nM"},
      {"measurement": "EC50", "setting": "IL-13 (human) [4]", "result": 2.28, "unit": "nM"}
    ]},
    {"substance": "CAT-354 fab", "values": [
      {"measurement": "EC50", "setting": "IL-13 (human) [2]; Fab", "result": 3.56, "unit": "nM"},
      {"measurement": "EC50", "setting": "IL-13 (human) [3]; Fab", "result": 4, "unit": "nM"}
    ]}
  ]
}
